The subject of data set [1] is BALB/C mouse. The data set is described as follows: MTD (maximum tolerated dose) acute toxicity in mice. The note with it: intravenous. It counts as in vivo.
Assay in data set [2]: as above
In kind it is in vivo, mouse. The note with it: female, mouse, in vivo; BALB/C mice, intravenous, observed 17 days.

Data set [3] in a line: Tumor tissue distribution by autofluorescence after intravenous injection. It counts as in vivo. Conditions: 10 μmol/kg intravenously, after 12 hours, FIG. 2. Here is the method:
Since DOX, Succinyl-AANL-DOX and S3 have autofluorescence, they can be detected by fluorescence microscopy in tumor tissues. 10 μmol/kg of DOX, Succinyl-AANL-DOX and S3 were injected intravenously. After 12 hours, the drug distribution image of the tumor tissue sections and the fluorescence intensity of the tumor tissue homogenate were measured. Nuclear staining was performed using DAPI.

Data set [4] concerns CT26 tumor cells. The data set is described as follows: CT26 immunotherapy model (Example 15). It counts as in vivo, mice.
Data set [5] has as its system D121 lung cancer cells. The data set is described as follows: D121 lung cancer immunotherapy model. The note with it: single agent.
Method: (1) D121 lung cancer cells purchased from ATCC were cultured in DMEM medium containing 10% fetal bovine serum at 37° C. and 5% CO2, and the cells were digested with EDTA trypsin according to routine use, and passed two to three times a week for placement.
(2) Animals: C57 BALB/C mice, 6-8 weeks old, female, weighing about 18-22 g, purchased from Shanghai SLAC Laboratory Animal Co., Ltd.
3) Immunization: Mice were intraperitoneally injected with 100 μL of 5×10^5 D121 lung cancer cells that died by repeated freeze-thaw cycles, and immunized 3 times with an interval of 2 weeks.
4) Cell seeding: Collect the tumor cells in logarithmic growth phase, adjust the D121 cell concentration to (1×10^7/ml) with DMEM basal medium, 0.1 ml of the cell suspension was inoculated to the right side of each mouse subcutaneously with a 1 ml syringe. […] Tumor volume was observed and measured, and the average tumor volume reached 100-200 mm^3 about 7 days after inoculation, that is, tumor cell-bearing mice were grouped and administered. The immunized group in Table 9 was immunized with D121 lung cancer cells, and the D121 dead tumor cell immunized group was injected with physiological saline as a control.
The immunosuppressive regulatory point protein Anti-PD-L1 antibody was injected twice a week. A total of two weeks.
6) Experimental observation: During the whole experiment, the use and observation of experimental animals were carried out in accordance with the regulations of AAALAC. The experimental animals were observed daily after inoculation of tumor cells, and their onset and death were recorded. During the routine experiment, all experimental animals were monitored and recorded for behavior, feeding, water intake, weight change, hair shine and other abnormalities.
(7) Analysis of tumor CD8+ T cells (T lymphocyte subsets). Tumor tissues were ground and single cancer cells were isolated by filtration using 40 μm Nylon cell strainer, lysed twice with blood cell lysis buffer for 20 min, washed twice with 1% BSA-PBS buffer, centrifuged, and resuspended, and then the cells were counted again. 1×10^5 cells were incubated with leukocyte co-antigen CD45-PE and CD8-FITC-labeled antibody for 1 hour at room temperature in the dark, and then analyzed the proportion of T lymphocyte antigen (CD8) in leukocyte common antigen (CD45)-positive cells by flow cytometry.
In data set [6] the target is T1, aspartic endopeptidase (Homo sapiens, UniProt Q99538).
T1 sequence (Q99538 18-323): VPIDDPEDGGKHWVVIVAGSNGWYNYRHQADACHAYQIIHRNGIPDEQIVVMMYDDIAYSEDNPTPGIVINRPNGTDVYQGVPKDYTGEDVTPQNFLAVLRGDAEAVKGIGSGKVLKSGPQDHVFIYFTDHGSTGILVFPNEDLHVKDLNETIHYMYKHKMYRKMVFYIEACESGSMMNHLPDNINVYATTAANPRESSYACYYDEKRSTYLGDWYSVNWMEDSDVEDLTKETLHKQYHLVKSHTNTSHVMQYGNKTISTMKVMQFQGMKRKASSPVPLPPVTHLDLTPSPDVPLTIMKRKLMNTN
The data set is described as follows: Activation efficiency by aspartic endopeptidase (HPLC). It counts as biochemical. The note with it: 1 mg/ml compound, enzyme 1 μmol/L, pH 6.0, 37° C., 2 hours; ratio of released product to original compound. As to the method: The sample compound and a portion of the control compound (herein, all of the control compounds can be synthesized by a method similar to that described in Examples 1-3) were uniformly diluted 10-fold to 1 mg/ml with the enzyme-digesting solution. In this experiment, 1 mg/ml of the sample compound was added to the aspartic endopeptidase (1 μmol/L, pH 6.0) at 37° C. for 2 hours. After the reaction, the enzyme digest was able to release the enzyme-digested product. The decrease in the compound and the increase in the product were examined by HPLC to compare the enzyme activation efficiency (the ratio of the product released by the enzyme cleavage to the original compound).

The nature of data set [7]: Solid stability, 60° C. for 10 days in the dark (HPLC). The note with it: solid, 60° C., 10 days, dark. In kind it is physicochemical. As to the method:
The test was carried out by leaving it at 60° C. for 10 days in the dark. The ratio of the change in the content of the compound to the compound at time 0 was measured by HPLC, and the stability value (%) was calculated.

Data set [8] is described as follows: Drug content in tumor tissue homogenate (HPLC). It counts as in vivo. Conditions: 10 micromoles per kilogram intravenous, tumor-bearing mice, FIG. 4. As to the method: Intravenous injection of 10 micromoles per kilogram of the drug into tumor-bearing mice, surgically obtained tumor tissue homogenate, and the drug content was determined by the HPLC method.

Structures are written as SMILES.

As usually defined, the MTD is the largest dose that counted as tolerated. Read a low MTD as a narrow tolerated range. In data set [1] (10 mice per group), `COc1cccc2c1C(=O)c1c(O)c3c(c(O)c1C2=O)C[C@](O)(C(=O)CO)CC3OC1C[C@H](NC(=O)OCc2ccc(NC(=O)C(CC(N)=O)NC(=O)C(C)NC(=O)C(C)NC(=O)[C@H](O)[C@H](O)[C@@H](O[C@@H]3O[C@H](CO)[C@H](O)[C@H](O)[C@H]3O)[C@H](O)CO)cc2)[C@H](O)[C@H](C)O1` (some centres unmarked) [Compound S3, Lacto-AAN-PABC-Adriamycin] came in with a Number of deaths of 1. Further, in data set [1] (observed 17 days), the “Death dose” value worked out at 110 mg/kg. In data set [2], the MTD at 17 days came out at 100 mg/kg. The “tumor tissue distribution and penetration” value in data set [3] was “more tumor tissue distribution and penetration after intravenous injection than Succinyl-AANL-DOX”. In data set [4] (10 in each group), this molecule showed a Cure rate % of 80% and a Number of cures of 8. For the same molecule, in data set [4] (IV ⅓ MTD once a week, 6 weeks), the “Tumor inhibition rate % (Day 42)” value was found to be 82.5%. Moreover, the “Recurrence rate % (Week 7)” value in data set [4] (cured mice re-inoculated with CT26 cells after 50 days) was 0%. In addition, in data set [5] (i.v. ⅙ MTD once a week for 4 weeks), the “Tumor inhibition rate/% (week 7)” value came out at 62.5%. Moreover, the “CD8: CD45 (%)” value in data set [5] (tumor CD8+ T cells among CD45-positive cells, flow cytometry) was found to be 14.6%. In addition, the “Activation efficiencies (%)” value in data set [6] amounted to 82.6%. The “Stability verdict (stable / unstable)” value in data set [7] is “stable”. Also, the “Stability(%)” value in data set [7] (content versus time 0) is listed as 99.8%. In data set [8], the “drug distribution in the tumor” value is reported as “increasing the distribution in the tumor compared to C11”.

Source of the values: patent US11078232B2, “Preparation and use of molecular site targeted and activated kinase inhibitor” (Yafei Shanghai Biology Medicine Science & Technology Co. …, priority 2017, dated 2021).
